The record followed here is US20230340111A1 (published 2023).

What is called Kd is the equilibrium constant for the complex coming apart. Usually koff stands for the rate constant with which the complex falls apart. The kon is the second-order rate constant of association. In general, EC50 refers to the concentration that produces a half-maximal response. A high value points to a need for much substance.

Like-named read-outs stand apart in the source and are kept apart here.

Assay [1] concerns the target T1, human FOLR1 recombinant protein (extracellular domain of human folate receptor alpha) (human, UniProt P15328 25-233).
T1 construct: Bought recombinant protein (Sino Biological); also called hFOLR1; FR-alpha
Briefly: SPR dual injection on immobilized human FOLR1, 250 nM; competitor (1st VHH, saturating) A4; by the legend the value is of the 2nd VHH. The procedure:
(§1) Competitive binding characteristics of His₆-tagged VHHs were determined via surface plasmon resonance with a Biacore T200 instrument (GE Healthcare). Immobilization of human FOLR1 recombinant protein (Sino Biological) and regeneration were performed as described below for kinetic measurements.
(§2) Table 8: Side-by-side comparison of His₆-tagged VHHs A1, A2, A3, A4, A5 for binding to human FOLR1 to identify competitive binding characteristics. Binding was measured in surface plasmon resonance with immobilized human FOLR1 recombinant protein as the ligand. After saturation of the ligand with VHH 1 an equimolar mixture of VHH 1 and VHH 2 was injected. Percentages express the loss in response level of VHH 2, relative to the response when VHH 2 was injected alone.

Assay [2] addresses T1, human FOLR1 recombinant protein …. Briefly: SPR dual injection on immobilized human FOLR1, 250 nM; competitor (1st VHH, saturating) A2; by the legend the value is of the 2nd VHH. Here is the method:
as §1, §2

Assay [3] shares this target. Briefly: SPR dual injection on immobilized human FOLR1, 250 nM; competitor (1st VHH, saturating) A3; by the legend the value is of the 2nd VHH. Here is the method:
as §1, §2

Assay [4] has the same target. Briefly: SPR (Biacore T200), human FOLR1 immobilized on CM5, His6-tagged VHH as analyte, 1:1 fit. Here is the method:
The kinetic parameters of antigen binding by purified VHHs were determined via surface plasmon resonance with a Biacore T200 instrument (GE Healthcare). The human FOLR1 recombinant protein (Sino Biological) was immobilized in 10 mM sodium acetate, pH 5.5 on a CM5 chip (GE Healthcare) via amine coupling chemistry to 500 RU. His₆-tagged VHHs were analyzed in a twofold serial dilution in HBS (125 nM-0.488 nM for VHHs A4 and A5; 10 nM-0.039 nM for VHHs A1, A2 and A3) with an analyte flow rate of 30 µl/min. The association phase took 180 s (A4-A5) or 450 s (A1-A3) and the dissociation phase 600 s (A4-A5) or 900 s (A1-A3). Regeneration was done by a single injection of 50 mM glycine-HCl, pH 2.5, 2 M MgCl₂ for 30 s at 30 µl/min, followed by 120 s stabilization. Binding curves were fitted using a ‘1:1 (antigen:analyte)’ binding model in Biacore T200 evaluation software.
(SPR reads the build-up and loss of mass on a sensor chip optically.)

The target is the same in assay [5]. Briefly: SPR dual injection on immobilized human FOLR1, 250 nM; competitor (1st VHH, saturating) A1; by the legend the value is of the 2nd VHH. Here is the method:
as §1, §2

For assay [6], the target named is T2, human FOLR1 expressed on SKOV-3 ovarian carcinoma cells (human, UniProt P15328 25-234).
T2 construct: Naturally expressed receptor on SKOV-3 cells; also called human FOLR1pos SKOV-3 cancer cells; human FOLR1-expressing cell line SKOV-3
T2 sequence (P15328 25-234 limits assumed): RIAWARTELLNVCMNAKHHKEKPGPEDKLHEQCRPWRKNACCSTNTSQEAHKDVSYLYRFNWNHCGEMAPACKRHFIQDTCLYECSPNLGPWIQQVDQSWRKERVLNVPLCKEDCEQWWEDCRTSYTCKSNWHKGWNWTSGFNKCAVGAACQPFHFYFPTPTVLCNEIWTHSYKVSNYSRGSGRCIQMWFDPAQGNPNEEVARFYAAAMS
The experiment in a line: cellular retention on SKOV-3 cells: 10 nM 131I-VHH 1 h at 4 C, then up to 24 h at 37 C; membrane-bound plus internalized fraction. Here is the method: The in vitro cellular retention of the different His₆- and untagged ¹³¹I-labeled VHHs was assessed on the same cancer cells. In this particular case, human FOLR1^pos SKOV-3 cancer cells were incubated with 10 nM ¹³¹I-labelled VHHs for 1h at 4° C., after which the unbound fraction was collected. A 100-fold excess of the corresponding unlabeled VHH to assess non-specific binding. Next, the cells were incubated with fresh medium up to 24 h at 37° C., after which the dissociated fraction was collected. Afterwards, the cells were washed with 0.05 M glycine pH 2.8 to collect the membrane-bound fraction. Finally, cells were solubilized with 1 M NaOH at room temperature to collect the internalized fraction. The sum of the membrane-bound and internalized fractions corresponds to the total cell-associated fraction.

For assay [7], the target named is T2, human FOLR1 expressed on SKOV-3 ovarian …. The experiment in a line: saturation binding of 131I-labelled untagged VHH on SKOV-3 cells.
The target is the same in assay [8]. Described as above. Here is the method:
In a first part, their in vitro behaviour was assessed by means of investigating their cellular binding and retention over time. The binding potential of the resulting radioconjugates was assessed to confirm that this was not affected by the introduction of ¹³¹I-SGMIB into the amino acid sequence of the different VHHs. To this, human FOLR1^pos SKOV-3 cancer cells were incubated with serial dilutions with concentrations ranging from 0 to 300 nM of the different ¹³¹I-labelled, His₆ tagged VHHs. A 100-fold excess of the corresponding unlabeled VHH was added in parallel to saturate the human FOLR1 receptors expressed on cancer cells, to assess non-specific binding.
A1 and A2 parental untagged VHH’s and derivatives were radiolabeled with theranostic isotope ¹³¹I, as described in example 3, and subjected to saturation binding studies as described in example 6.
The source holds these as a separate data set.

For assay [9], the target named is T1, human FOLR1 recombinant protein …. Briefly: SPR (Biacore T200), single cycle kinetics, His6-tagged VHH immobilized on CM5, human FOLR1 as analyte, 1:1 fit. Here is the method:
The kinetic parameters of antigen binding for purified VHHs A1, A2 and A3 were determined via surface plasmon resonance with a Biacore T200 instrument (GE Healthcare) using single cycle kinetics mode. While example 4d provides a first and preferred way of assessing the kinetic parameters of antigen binding for VHHs using surface plasmon resonance, this example provides an alternative setup for using surface plasmon resonance to assess the kinetic parameters of antigen binding, inverting the analyte and immobilized ligand. His₆-tagged VHH A1, A2 or A3 was immobilized in 10 mM sodium acetate, pH 5.5 on a CM5 chip (GE Healthcare) via amine coupling chemistry to 160 RU. The human FOLR1 recombinant protein (Sino Biological) was analyzed in a threefold serial dilution in HBS (38.5 nM-0.47 nM) with an analyte flow rate of 30 µl/min. The association phase took 180 s for every concentration and the dissociation phase 900 s. Regeneration was done by a single injection of 50 mM glycine-HCl, pH 2.5, 2 M MgCl2 for 30 s at 30 µl/min, followed by 120 s stabilization. Binding curves were fitted using a ‘1:1 (antigen:analyte)’ binding model in Biacore T200 evaluation software.

For assay [10] the target is unchanged. Briefly: SPR dual injection on immobilized human FOLR1, 250 nM; competitor (1st VHH, saturating) A5; by the legend the value is of the 2nd VHH. Here is the method: as §1, §2

T1 sequence (P15328 25-233): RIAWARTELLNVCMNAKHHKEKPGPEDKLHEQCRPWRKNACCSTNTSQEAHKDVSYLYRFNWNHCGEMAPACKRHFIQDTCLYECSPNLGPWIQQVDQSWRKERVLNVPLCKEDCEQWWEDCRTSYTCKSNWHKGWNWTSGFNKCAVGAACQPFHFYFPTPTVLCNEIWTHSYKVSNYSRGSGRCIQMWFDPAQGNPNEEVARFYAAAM

B1: His6-tagged variant of VHH A5 (VHH)
VHH: DVQLVESGGGLVQAGGSLRLSCGVSGNIFSMNLMGWYRQPPGKEREWVALITKDGSTNYEDSVKGRFTISRDNAKNTVSLQMNSLKPEDTAVYYCNAQDGSGWIRAWGWDWGQGTQVTVSS
notes: Purified, unlabelled; also called A5 His6-tag
In the case of B1, the “loss in response level of VHH 2 relative to VHH 2 injected alone” value in assay [1] is -98%; in assay [2], -99%; in assay [3] it was -100%; in assay [5], -96%. In addition, the Kd in assay [4] is 14 nM. Besides, the koff in [4] came to 0.018 s⁻¹. Further, the kon in assay [4] was 1.3e+06 M⁻¹ s⁻¹.

B2: 131I-labeled untagged VHH A3 (VHH)
VHH: DVQLVESGGGLVQAGGSLRLSCGVSGNMFSMNLMGWYRQPPGKERDWVAVITKDGSTNYADSVKGRFTISRDNAKNTVSLQMNSLKPEDTAVYYCNVQDGSGWIRAWGWDWGQGTQVTVSS
modifications: [131I]SGMIB conjugated to lysine side-chain amine groups
As for B2, the “cell-associated fraction of initial bound activity after 24 h” value in assay [6] turned out to be 15%. Moreover, in assay [7], the EC50 came out at 5.8 nM.

B3: 131I-labeled untagged VHH A1 (VHH)
VHH: DVQLVESGGGLVQPGGSLRLSCAASESIFSRNHMSWYRQAPGKQRELAAIITSDGNTNYPDSVKGRFTISRDNAKNTVYLQMNSLKPEDTAVYYCNTFGRSVAGFYDYWGQGTQVTVSS
modifications: [131I]SGMIB conjugated to lysine side-chain amine groups
With B3, the “cell-associated fraction of initial bound activity after 24 h” value in assay [6] was roughly 40%. For the same molecule, the EC50 in assay [8] was determined as 1.1 nM; in assay [7], 1.2 nM.

B4: His6-tagged variant of VHH A1 (VHH)
VHH: DVQLVESGGGLVQPGGSLRLSCAASESIFSRNHMSWYRQAPGKQRELAAIITSDGNTNYPDSVKGRFTISRDNAKNTVYLQMNSLKPEDTAVYYCNTFGRSVAGFYDYWGQGTQVTVSS
notes: Purified, unlabelled; also called A1 His6-tag
B4: the Kd in [9] was 0.44 nM; in [4], 0.04 nM. Also, the koff worked out at 0.00019 s⁻¹ in assay [9] and 0.00014 s⁻¹ in assay [4]. For the same molecule, the kon was determined as 430000 M⁻¹ s⁻¹ in [9] and 3.6e+06 M⁻¹ s⁻¹ in assay [4]. Besides, the “loss in response level of VHH 2 relative to VHH 2 injected alone” value in assay [1] was -98%; in assay [10] it was -91%; in assay [2], -98%; in assay [3], -100%.

B5: His6-tagged variant of VHH A4 (VHH)
VHH: DVQLVESGGGLARAGGSLRLSCAASGRAFSSTYAMGWFRQAPGKEREFVADINWSEGSPMYIDSVKDRFTISRDNARNSLYLQMNSLKSEDTAVYYCAARRFGQGYEYWGQGTQVTVSS
notes: Purified, unlabelled; also called A4 His6-tag
As for B5, the “loss in response level of VHH 2 relative to VHH 2 injected alone” value is -91% in assay [10], -99% in assay [2], -100% in assay [3] and -97% in [5]. Moreover, the Kd in [4] amounted to 4.3 nM. In addition, the koff in assay [4] amounted to 0.0057 s⁻¹. In addition, the kon in assay [4] turned out to be 1.3e+06 M⁻¹ s⁻¹.
